Consider one molecule from patent US7838495B2, “Compositions and methods of use of EPB1, and ErbB3 binding protein” (University of Maryland, Baltimore, priority 2007, dated 2010).

One assay has as its system C81 cells. As to the kind of experiment: Sensitivity of C81 transfectants to 4 Gy gamma radiation. The format is cell-based, human. The following applies: C81 EPB1 transfectants, 72 h after exposure (vector less than 10%). An excerpt: Restoration or increase of EPB1 expression can sensitize the androgen independent prostate cancer C81 cells to radiation. Radiotherapy is another important treatment for locally and regionally advanced prostate cancer. However, resistance of prostate cancer cells to radiation limits its efficacy and dose escalation is obviously not the solution to this common phenomenon. Bcl-2 overexpression may be the same critical molecule underlying the resistance to radiotherapy as to the chemotherapy in prostate cancer. 4 Gy gamma radiation killed 100% of EPB1 transfectants while less than 10% of C81 vector transfectants were dead in 72 h after exposure to the same 4 Gy gamma irradiation. […] Without being bound by theory, it is contemplated that the increase in sensitivity to radiation might be due to the decreased levels of Bcl-2 in EPB1 transfectants given the importance of Bcl-2 function in resistance to radiation.

The subject of another assay is MCF-7 cells. As to the kind of experiment: Western blot of ErbB2 and ErbB3 in MCF-7 EBP1 transfectants. The format is cell-based, human. The following applies: MCF-7-EBP1 transfectants vs vector controls. On the procedure:
FIG. 10A-C. Effect of ectopic expression of EBP1 on ErbB3 or ErbB2 protein levels. (A and B) Lysates of logarithmically growing MCF-7 vector control cells (CMV) or EBP1 transfected cells (Ebp1) or (C) AU565 cells were blotted with antibodies for ErbB3 or ErbB2 and actin as indicated. Data are representative of three experiments.
2.5. Western blot analysis. Total cell extracts were prepared by direct lysis of cells with lysis buffer [50 mM Tris-HCl (pH 7.4), 1 mM EDTA, 250 mM NaCl, 1% Triton X-100, 0.5 mM DTT, and 1× Complete™ protease inhibitor]. Protein concentrations were measured using a detergent compatible kit (Bio-Rad). Proteins (30 lg per well) were resolved by SDS-PAGE, transferred to PVDF membranes, and immunoblotted as described. […] Images were quantified using IMAGE-J software (NIH). […] Relative cell numbers were determined 4 days later using a Promega Proliferation Reagent as per manufacturer's instructions with absorbance being read at 490 nm using a Dynex plate reader. […] Data were analyzed using a two-tailed Students t-test and a p <0.05 was deemed statistically significant. […]

B1: EBP1: ErbB3 binding protein (SEQ ID NO: 2), AR corepressor, here ectopically expressed in cancer cells by stable transfection of an expression plasmid (protein, listed as Homo sapiens)
chain: MSGEDEQQEQTIAEDLVVTKYKMGGDIANRVLRSLVEASSSGVSVLSLCEKGDAMIMEETGKIFKKEKEMKKGIAFPTSISVNNCVCHFSPLKSDQDYILKEGDLVKIDLGVHVDGFIANVAHTFVVDVAQGTQVTGRKADVIKAAHLCAEAALRLVKPGNQNTQVTEAWNKVAHSFNCTPIEGMLSHQLKQHVIDGEKTIIQNPTDQQKKDHEKAEFEVHEVYAVDVLVSSGEGKAKDAGQRTTIYKRDPSKQYGLKMKTSRAFFSEVERRFDAMPFTLRAFEDEKKARMGVVECAKHELLQPFNVLYEKEGEFVAQFKFTVLLMPNGPMRITSGPFEPDLYKSEMEVQDAELKALLQSSASRKTQKKKKKKASKTAENATSGETLEENEAGD
modifications: FLAG tag
In the case of B1, in the assay with C81 cells, the “cells killed by 4 Gy gamma radiation” value stood at 100%. In addition, in the assay with MCF-7 cells, the ErbB2 protein level entry is recorded as “significantly decreased” and the ErbB3 protein level result is “no change”.
